Reference: paper PMC9765176, “Infant Antibody Repertoires during the First Two Years of Influenza Vaccination” (mBio, 2022)

Legend:
[1] = target: T1, recombinant hemagglutinin B/Brisbane/2008, head construct (trimeric, head-only) (influenza B virus B/Brisbane/60/2008, UniProt C0LT35, strain); experiment: multiplex bead assay (Luminex); conditions: one partner purified
T1 construct: also called rHA head

[2] = target: T2, recombinant hemagglutinin B/Brisbane/2008, full-length construct (full-length soluble ectodomain, FLsE) (influenza B virus B/Brisbane/60/2008, UniProt C0LT35, strain); experiment: multiplex bead assay (Luminex); conditions: one partner purified
T2 construct: also called B/Brisbane/60/2008; B/Vic

B1: year 2 postvaccination Bmem BCR of infant 1, clonally related to the most abundant IBV HA-specific plasma IgG clonotype (antibody, V domains shown)
VH: EVQLVESGGGLVQPGGSLRLSCAASGFTFRSYEMNWVRQAPGKGLEWISYISGSGGTIYYADSVKGRFTISRDNARNSLYLQMNSLRAEDTAVYYCARDLRGIGDYWGQGTLVTVSS
VL: SSELTQDPAVSVALGQTVRITCQGDSLRSYYASWYQQKPGQAPVLVIYGESNRPSGIPDRFSGSSSGNTASLTITGAQAEDEADYYCNSRDNSGNLYVFGSGTKVTVL
binding result [1]: no binding
binding result [2]: binds
